The nature of data set [1]: Stability after thermochallenge (TM). Format: physicochemical. Particulars: thermochallenge of supernatants. As to the method:
The humanized variants were tested for stability after challenge at high temperature. The approximate midpoints of the thermal unfolding transitions (TM) were determined for every humanized variant by subjecting the supernatants to temperatures ranging from 60 to 74° C. These temperatures were chosen based on the denaturation profile observed for the murine antibody molecule after thermochallenging between a broad range of temperatures between 50 and 80° C. The binding properties of each variant were determined before and after thermochallenge.

In data set [2] the test system is CNV lesions. In words: Murine laser-induced CNV model (Example 4). Format: in vivo, mouse. Particulars: 0.5 μg. The procedure:
Female C57BL6/J mice were subjected to laser-induced rupture of Bruch's membrane and administered either 0.5 μg of Sphingomab or an isotype-matched non-specific (NS) antibody diluted in 2 μl of physiological saline. Mice were sacrificed 14 and 28 days after laser rupture.
To induce CNV lesions, the pupils were dilated with ophthalmic tropicamide (0.5%) and phenylephrine (2.5%). A coverslip was placed on the eye. An Oculight GL 532 nm (Iridex Corporation, Mountain View, Calif.) coupled to a slit lamp set to deliver a 100 msec pulse at 150 mW with a 50 μm spot size was used to rupture Bruch's membrane in three quadrants of the right eye located approximately 50 μm from the optic disc at relative 9, 12 and 3 o'clock positions. The left eye served as an uninjured control in all cases. Any lesion not associated with a vapor bubble or lesions that became confluent were excluded from analysis. […]
To assess collagen deposition, the sclera-choroid-RPE complex was stained with Masson's Trichrome. […] Approximately 30 sections per lesion were evaluated. Quantitation of the volume of collagen deposition was calculated in the same manner as described for CNV lesion volume.
Captured digital images were evaluated morphometrically using ImageJ software (Research Services Branch, National Institutes of Health, Bethesda, Md.).

For a further data set, the system named is HUVECs. In words: HUVEC tube formation on Matrigel. The format is cell-based, human. Particulars: co-incubated with S1P; GF-reduced Matrigel. The procedure:
Experiments were performed as described by Visentin et al. (Cancer Cell 2006 March; 9(3):225-38).

The test system of data set [3] is endothelial cell (EC) infiltration. Kind of data set: In vivo Matrigel plug assay, S1P plugs, EC infiltration. Also noted: species or system mouse. Particulars: systemic administration every 48 hrs. As to the method:
Based on in vivo studies showing that S1P increased endothelial capillary growth into subcutaneously implanted Matrigel plugs, we speculated that SPHINGOMAB could reduce de novo BV formation in vivo. To investigate this, we employed the in vivo Matrigel Plug assay for neovascularization. In one set of experiments, Matrigel was supplemented with either 1 μM S1P, 0.5 μg/mL bFGF or 1 μg/mL VEGF and then […]. into mice (n=4). After 10 days, the mice were heparinized and injected with the fluorescent lectin, Isolectin B4-FITC, which binds to adhesion molecules expressed by vascular EC that form the growing BVs. The plugs were then excised, frozen in OCT, sectioned and viewed for FITC-stained BVs.
Sections of the plugs were then stained with hemotoxyln & eosin for evaluation of EC infiltration (FIG. 6B). The infiltration of ECs is a critical step in neo-vascularization. […] Cell infiltration is presumed to be ECs although we recognize that other cell types such as immune cells may also be stained.

Data set [4] relates to CNV lesions. Kind of data set: CNV animal model, murine vs humanized variants (Example 17). Format: in vivo, mouse. Particulars: 0.5 ug intravitreal Day 0 and Day 6; 14 days post laser; vs saline. The procedure: The humanized antibody variants and the murine antibody were compared for their ability to inhibit neo-vascularization in the CNV animal model of AMD as shown in FIG. 13. […] Mice were sacrificed 14 days post laser surgery. Control mice were treated with aqueous buffer (PBS) or an isotype-matched non-specific antibody. Three of the humanized variants inhibited angiogenesis essentially equivalently to the murine antibody as assessed by measurement of CNV area. CNV lesion volumes are represented as means±SEM. […]
The morphometric and volumetric CNV lesions were measured as follows. […]
Captured digital images were evaluated morphometrically using ImageJ software (Research Services Branch, National Institutes of Health, Bethesda, Md.). Images were split into separate RGB channels for analysis of the red and green channels as follows: 1) a calibration for the specific objective and microscope was applied to set the pixel-to-length ratio; 2) a threshold was applied using the Otsu algorithm; 3) images will be made binary; 4) a region-of-interest (ROI) was outlined to include the entire lesion area; 5) a particle analysis was performed to quantify the pixel area above the threshold level within the ROI. […]

B1: LT1002: murine monoclonal antibody to S1P, IgG1 kappa, hybridoma clone 306D326.26 (antibody, listed as Mus sp., V domains shown)
VH: QAHLQQSDAELVKPGASVKISCKVSGFIFIDHTIHWMKQRPEQGLEWIGCISPRHDITKYNEMFRGKATLTADKSSTTAYIQVNSLTFEDSAVYFCARGGFYGSTIWFDFWGQGTTLTVS
VL: ETTVTQSPASLSMAIGEKVTIRCITTTDIDDDMNWFQQKPGEPPNLLISEGNILRPGVPSRFSSSGYGTDFLFTIENMLSEDVADYYCLQSDNLPFTFGSGTKLEIK
Take B1: in data set [1], the “TM (approximate midpoint of the thermal unfolding transition)” value amounted to 65 °C. Moreover, the choroidal neovascularization entry in the data set with CNV lesions [2] (14 and 28 days after laser-induced rupture of Bruch's membrane) is given as “dramatically attenuates”. Also, the “fibrosis associated with CNV lesion formation” value with CNV lesions [2] (28 days after laser rupture, Masson's Trichrome) is reported as “significantly reduces”. In addition, the “capillary-like structure (tube) formation” value with HUVECs is “failed to form capillary-like structures”. For the same molecule, in data set [3], the “EC infiltration into S1P Matrigel plugs” value is listed as “reduced amount of EC infiltration”. Besides, in the data set with CNV lesions [4], the “Percent inhibition of lesion size” value is reported as “approximately 80%”.
